EC50 and Kd data for eight molecules are collected here from patent US12478674 (dated 2025).

Test [1] has as its target human CTLA-4 (human). Briefly: FACS, pH 7.3. For orientation: Flow cytometry measures light scatter and fluorescence of single cells or particles in a stream.
The target in test [2] is human CTLA-4 (human). As to the kind of experiment: FACS, pH 6.0.
Test [3] has as its target human CTLA-4 (human). Briefly: SPR, pH 6.0, 37C. On the technique in general: SPR reads the build-up and loss of mass on a sensor chip optically.
In test [4] the target is human CTLA-4 (human). Briefly: SPR, pH 6.0, 37C. The source holds these as a separate data set.
Test [5] has as its target human CTLA-4 (human). As to the kind of experiment: SPR, pH 6.0, 37C. The source holds these as a separate data set.
Test [6] deals with human CTLA-4 (human). As to the kind of experiment: SPR, pH 7.4, 37C.
Test [7] has as its target human CTLA-4 (human). Briefly: SPR, pH 7.4, 37C. The source holds these as a separate data set.
The target in test [8] is human CTLA-4 (human). Briefly: SPR, pH 7.4, 37C. The source holds these as a separate data set.
The target in test [9] is human CTLA-4 (human). Briefly: FACS, pH 6.2, bivalent.
In test [10] the target is human CTLA-4 (human). Briefly: FACS, pH 6.7, bivalent.
Test [11] has as its target human CTLA-4 (human). As to the kind of experiment: FACS, pH 7.2, bivalent.

“And” between values parts separate entries of the source, which are not always exact repeats. Identical values can stand only once.

human CTLA-4 (human), sequence (chain, as listed by the source): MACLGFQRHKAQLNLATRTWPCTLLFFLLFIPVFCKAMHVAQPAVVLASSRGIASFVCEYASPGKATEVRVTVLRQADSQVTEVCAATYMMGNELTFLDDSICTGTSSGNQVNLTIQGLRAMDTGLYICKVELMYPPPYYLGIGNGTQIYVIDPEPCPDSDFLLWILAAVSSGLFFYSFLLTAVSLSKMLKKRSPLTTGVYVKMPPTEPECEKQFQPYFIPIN

B1: ipilimumab (ipi) Fab (antibody, V domains shown)
VH: QVQLVESGGGVVQPGRSLRLSCAASGFTFSSYTMHWVRQAPGKGLEWVTFISYDGNNKYYADSVKGRFTISRDNSKNTLYLQMNSLRAEDTAIYYCARTGWLGPFDYWGQGTLVTVSS
VL: not shown
By EC50 is commonly meant the concentration giving half of the maximal effect. The low end stands for a more potent agent, the high end for a less potent agent. A word on the Kd: it is a measure of binding affinity in units of concentration. A low value points to higher affinity. For B1, the results for the EC50 in the test with human CTLA-4 [1] and with human CTLA-4 [2] were 5.4 nM and 7.1 nM, respectively. Further, the Kd is 21 nM in the test with human CTLA-4 [3]; 21 nM with human CTLA-4 [4]; 46 nM with human CTLA-4 [5]; 47 nM with human CTLA-4 [6]; 22 nM with human CTLA-4 [7]; 22 nM and 14 nM with human CTLA-4 [8].

B2: ipi.105 IgG1 (antibody, V domains shown)
VH: QVQLVESGGGVVQPGRSLRLSCAASGFTFSHYTMHWVRQAPGKGLEWVTFISYDGHNKYYADSVKGRFTISRDNSKNTLYLQMNSLRAEDTAIYYCARTGWLGPFDYWGQGTLVTVSS
VL: EIVLTQSPGTLSLSPGERATLSCRASQEVGESELAWYQQKPGQAPRLLIYGAFSRATGIPDRFSGSGSGTDFTLTISRLEPEDFAVYYCQQYGSSPWTFGQGTKVEIKR
With B2, the concentration giving a half-maximal response (EC50) was found to be 2.6 nM in the test with human CTLA-4 [9], 3.45 nM in the test with human CTLA-4 [10] and 3.94 nM with human CTLA-4 [11].

B3: ipi.100 IgG1 (antibody, V domains shown)
VH: QVQLVESGGGVVQPGRSLRLSCAASGFTFSHYTMHWVRQAPGKGLEWVTFISYDGNNKYYADSVKGRFTISRDNSKNTLYLQMNSLRAEDTAIYYCARTGWLGPFDYWGQGTLVTVSS
VL: not shown
As to B3, the concentration for a half-maximal effect (EC50) with human CTLA-4 [9] was found to be 2.94 nM; in the test with human CTLA-4 [10], 2.85 nM; with human CTLA-4 [11], 2.8 nM.

B4: ipi.64 IgG1 (antibody, V domains shown)
VH: QVQLVESGGGVVQPGRSLRLSCAASGFTFSHYTMHWVRQAPGKGLEWVTFISYDGNNKYYADSVKGRFTISRDNSKNTLYLQMNSLRAEDTAIYYCARTGWLGPFDYWGQGTLVTVSS
VL: not shown
As for B4, the concentration for a half-maximal effect (EC50) with human CTLA-4 [9] came to 2.93 nM; with human CTLA-4 [10] it was 2.97 nM; with human CTLA-4 [11], 3.1 nM.

B5: ipi.106 IgG1 (antibody, V domains shown)
VH: QVQLVESGGGVVQPGRSLRLSCAASGFTFSHYTMHWVRQAPGKGLEWVTFISYDGHNKYYADSVKGRFTISRDNSKNTLYLQMNSLRAEDTAIYYCARHGWLGPFDYWGQGTLVTVSS
VL: EIVLTQSPGTLSLSPGERATLSCRASQEVGESELAWYQQKPGQAPRLLIYGAFSRATGIPDRFSGSGSGTDFTLTISRLEPEDFAVYYCQQYGSSPWTFGQGTKVEIKR
As to B5, the figures for the EC50 with human CTLA-4 [9], with human CTLA-4 [10] and with human CTLA-4 [11] were 3.15 nM, 4.37 nM and 11.5 nM, respectively.

B6: ipi.101 IgG1 (antibody, V domains shown)
VH: QVQLVESGGGVVQPGRSLRLSCAASGFTFSHYTMHWVRQAPGKGLEWVTFISYDGHNKYYADSVKGRFTISRDNSKNTLYLQMNSLRAEDTAIYYCARTGWLGPFDYWGQGTLVTVSS
VL: not shown
In the case of B6, the EC50 in the test with human CTLA-4 [9] amounted to 3.52 nM; with human CTLA-4 [10], 4.06 nM; with human CTLA-4 [11], 3.81 nM.

B7: ipi.64 Fab (antibody, V domains shown)
VH: QVQLVESGGGVVQPGRSLRLSCAASGFTFSHYTMHWVRQAPGKGLEWVTFISYDGNNKYYADSVKGRFTISRDNSKNTLYLQMNSLRAEDTAIYYCARTGWLGPFDYWGQGTLVTVSS
VL: not shown
As to B7, the EC50 with human CTLA-4 [1] is 140 nM; with human CTLA-4 [2] it was 3.3 nM.

B8: ipilimumab IgG1 (antibody, V domains shown)
VH: QVQLVESGGGVVQPGRSLRLSCAASGFTFSSYTMHWVRQAPGKGLEWVTFISYDGNNKYYADSVKGRFTISRDNSKNTLYLQMNSLRAEDTAIYYCARTGWLGPFDYWGQGTLVTVSS
VL: not shown
Consider B8, for which the half-maximal effective concentration (EC50) with human CTLA-4 [9] was 2.76 nM; in the test with human CTLA-4 [10], 2.35 nM; with human CTLA-4 [11] it was 1.84 nM.
